The values below come from PMC8559680, “Dynamics in Fip1 regulate eukaryotic mRNA 3′ end processing” (Genes & Development, 2021).

As a reminder, the Kd is the free concentration of one partner at which half of the binding sites on the other are occupied at equilibrium, for simple one-to-one binding.

B1: Fip1_(226) (Fip1 residues 1–226), purified from E. coli (domain or fragment, yeast, UniProt P45976 1-226, looked up)
chain: MSSSEDEDDKFLYGSDSELALPSSKRSRDDEADAGASSNPDIVKRQKFDSPVEETPATARDDRSDEDIYSDSSDDDSDSDLEVIISLGPDPTRLDAKLLDSYSTAATSSSKDVISVATDVSNTITKTSDERLITEGEANQGVTATTVKATESDGNVPKAMTGSIDLDKEGIFDSVGITTIDPEVLKEKPWRQPGANLSDYFNYGFNEFTWMEYLHRQEKLQQDYNP
notes: Isotopically labelled (15N, 13C, 2H) where it is the observed species in NMR; cloned in pET28a+; also called Fip226; source: E. coli BL21 Star, purified (Ni-NTA, TEV cleavage, Superdex 75); not shown: His tag, N-terminal, cleaved

Assay [1] has as its target T1, CPFΔFip1 (recombinant CPF lacking Fip1; Pap1 also absent) (yeast, UniProt Q06632 1-1357; P42841 1-465; Q06102 1-208; Q12102 1-859; Q06224 1-779; P35728 …).
T1 construct: Cft1, yeast; as m20; Pfs2, yeast, untagged; as m19; Yth1, yeast, untagged; as m12; Cft2, yeast; as m21; Ysh1, yeast; as m22; Mpe1, yeast; as m23; Pta1, yeast; as m24; Ssu72, yeast; as m25; Pti1, yeast; as m26; Glc7, yeast; as m27; as m28; Swd2, yeast; as m29; Twelve subunits: Fip1 was omitted from the CPFcore construct and Pap1, though co-expressed, was absent from the purified complex; source: …
Nature of the assay: mass photometry; Refeyn One iSCAT; samples diluted to 100 nM in 50 mM HEPES (pH 7.4), 150 mM NaCl. Particulars: both partners purified.

In assay [2] the target is Yth1ZF4 (Yth1 zinc finger 4) (yeast) (UniProt Q06102). Nature of the assay: ITC; MicroCal iTC200, 25°C, 50 mM HEPES (pH 7.4), 150 mM NaCl; single class-binding site model.
Assay [3] concerns the target B1. Nature of the assay: NMR titration; 15N-labelled Yth1 construct with unlabelled Fip1_(226), equimolar, 75 µM; chemical shift perturbations and line broadening; 700 MHz, 298 K, 50 mM HEPES (pH 7.4), 150 mM NaCl. The settings on record: both partners purified.

On to B1, for which the binding result in assay [1] was “binds”. Moreover, in assay [2], the Kd was 240 nM.

B2: Yth1_(ZF45C) (Yth1 residues 118–208) (domain or fragment, yeast, UniProt Q06102 118-208, looked up)
chain: ASKIPKCENYEMGFCPLGSSCPRRHIKKVFCQRYMTGFCPLGKDECDMEHPQFIIPDEGSKLRIKRDDEINTRKMDEEKERRLNAIINGEV
notes: Yth1, yeast, zinc fingers 4 and 5 and the rest of the C-terminal region, residues 118–208; 15N- or 13C,15N-labelled where it is the observed species in NMR; cloned in pGEX6P-2; also called entire C-terminal half of Yth1; source: E. coli BL21 Star, purified (GST resin, 3C cleavage, Superdex 75); not shown: GST, N-terminal, cleaved
For the molecule B2, the binding result in assay [3] is “binds”.
